Reference: the supplement of paper PMC10567573

B1: SLC22A15 (parent)
chain: IAQYALLGYFIRSWRTLAILVNLQ

Variants of: B1
Experiment: protein stability index of a GFP-peptide fusion (GPS, HEK-293T) (PSI 1-6); higher = more stable
Details: c terminus: a fixed tail appended
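Further: lentivirally expressed fusions sorted by FACS into six bins by GFP to DsRed ratio, PSI derived from sequencing read proportions per bin multiplied by bin number.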

| Variant | protein stability index |
| --- | --- |
| IAQYALLGYFIRSWRTLAILVNLL [Q24L] | 3.01 |
| IAQYALLGYFIRSWRTLAILVNLH [Q24H] | 2.79 |
| IAQYALLGYFIRSWRTLAILVNLP [Q24P] | 3.8 |
| IAQYALLGYFIRSWRTLAILVNLF [Q24F] | 2.7 |
| IAQYALLGYFIRSWRTLAILVNLD [Q24D] | 2.49 |
| IAQYALLGYFIRSWRTLAILVNLA [Q24A] | 4.01 |
| IAQYALLGYFIRSWRTLAILVNLM [Q24M] | 2.6 |
| IAQYALLGYFIRSWRTLAILVNLG [Q24G] | 2.66 |
| IAQYALLGYFIRSWRTLAILVNLN [Q24N] | 2.07 |
| IAQYALLGYFIRSWRTLAILVNLR [Q24R] | 3.17 |
| IAQYALLGYFIRSWRTLAILVNLC [Q24C] | 2.35 |
| IAQYALLGYFIRSWRTLAILVNLV [Q24V] | 2.92 |
| IAQYALLGYFIRSWRTLAILVNLT [Q24T] | 3.58 |
| IAQYALLGYFIRSWRTLAILVNLS [Q24S] | 2.34 |
| IAQYALLGYFIRSWRTLAILVNLE [Q24E] | 3.5 |
| IAQYALLGYFIRSWRTLAILVNLI [Q24I] | 3.51 |
| IAQYALLGYFIRSWRTLAILVNLY [Q24Y] | 2.82 |
| IAQYALLGYFIRSWRTLAILVNLK [Q24K] | 3.21 |
| IAQYALLGYFIRSWRTLAILVNLW [Q24W] | 2.37 |
| IAQYALLGYFIRSWRTLAILQNLQ [V21Q] | 2.24 |
| IAQYALLGYFIRSWRTLAILGNLQ [V21G] | 1.76 |
| IAQYALLGYFIRSWRTLAILINLQ [V21I] | 4.67 |
| IAQYALLGYFIRSWRTLAILLNLQ [V21L] | 3.19 |
| IAQYALLGYFIRSWRTLAILFNLQ [V21F] | 2.86 |

| Variant | protein stability index |
| --- | --- |
| IAQYALLGYFIRSWRTLAILHNLQ [V21H] | 2.69 |
| IAQYALLGYFIRSWRTLAILSNLQ [V21S] | 2.08 |
| IAQYALLGYFIRSWRTLAILANLQ [V21A] | 2.78 |
| IAQYALLGYFIRSWRTLAILDNLQ [V21D] | 2.85 |
| IAQYALLGYFIRSWRTLAILENLQ [V21E] | 2.14 |
| IAQYALLGYFIRSWRTLAILCNLQ [V21C] | 2.52 |
| IAQYALLGYFIRSWRTLAILNNLQ [V21N] | 2.8 |
| IAQYALLGYFIRSWRTLAILTNLQ [V21T] | 3.6 |
| IAQYALLGYFIRSWRTLAILKNLQ [V21K] | 2.38 |
| IAQYALLGYFIRSWRTLAILYNLQ [V21Y] | 2.37 |
| IAQYALLGYFIRSWRTLAILPNLQ [V21P] | 3.37 |
| IAQYALLGYFIRSWRTLAILRNLQ [V21R] | 2.7 |
| IAQYALLGYFIRSWRTLAYLVNLQ [I19Y] | 3.28 |
| IAQYALLGYFIRSWRTLATLVNLQ [I19T] | 2.44 |
| IAQYALLGYFIRSWRTLAPLVNLQ [I19P] | 3.94 |
| IAQYALLGYFIRSWRTLACLVNLQ [I19C] | 3.7 |
| IAQYALLGYFIRSWRTLAMLVNLQ [I19M] | 2.84 |
| IAQYALLGYFIRSWRTLARLVNLQ [I19R] | 2.16 |
| IAQYALLGYFIRSWRTLANLVNLQ [I19N] | 3 |
| IAQYALLGYFIRSWRTLAKLVNLQ [I19K] | 2.96 |
| IAQYALLGYFIRSWRTLAWLVNLQ [I19W] | 2.01 |
| IAQYALLGYFIRSWRTLAVLVNLQ [I19V] | 2.96 |
| IAQYALLGYFIRSWRTLADLVNLQ [I19D] | 3.35 |
| IAQYALLGYFIRSWRTLAALVNLQ [I19A] | 3.93 |

| Variant | protein stability index |
| --- | --- |
| IAQYALLGYFIRSWRTLALLVNLQ [I19L] | 2.4 |
| IAQYALLGYFIRSWRTLAFLVNLQ [I19F] | 2.53 |
| IAQYALLGYFIRSWRTLAHLVNLQ [I19H] | 3.34 |
| IAQYALLGYFIRSWRTLASLVNLQ [I19S] | 1.99 |
| IAQYALLGYFIRSWRTLAQLVNLQ [I19Q] | 3.02 |
| IAQYALLGYFIRSWRTLAELVNLQ [I19E] | 4 |
| IAQYALLGYFIRSWRTLAILVALQ [N22A] | 2.95 |
| IAQYALLGYFIRSWRTLAILVGLQ [N22G] | 1.88 |
| IAQYALLGYFIRSWRTLAILVMLQ [N22M] | 2.6 |
| IAQYALLGYFIRSWRTLAILVSLQ [N22S] | 2.85 |
| IAQYALLGYFIRSWRTLAILVYLQ [N22Y] | 1.37 |
| IAQYALLGYFIRSWRTLAILVFLQ [N22F] | 2.84 |
| IAQYALLGYFIRSWRTLAILVVLQ [N22V] | 2.23 |
| IAQYALLGYFIRSWRTLAILVELQ [N22E] | 2.57 |
| IAQYALLGYFIRSWRTLAILVTLQ [N22T] | 1.9 |
| IAQYALLGYFIRSWRTLAILVILQ [N22I] | 3.28 |
| IAQYALLGYFIRSWRTLAILVWLQ [N22W] | 3.89 |
| IAQYALLGYFIRSWRTLAILVRLQ [N22R] | 1.22 |
| IAQYALLGYFIRSWRTLAILVQLQ [N22Q] | 3.36 |
| IAQYALLGYFIRSWRTLAILVHLQ [N22H] | 2.27 |
| IAQYALLGYFIRSWRTLAILVKLQ [N22K] | 2.52 |
| IAQYALLGYFIRSWRTLAILVDLQ [N22D] | 3.52 |
| IAQYALLGYFIRSWRTLRILVNLQ [A18R] | 2.01 |
| IAQYALLGYFIRSWRTLQILVNLQ [A18Q] | 2.15 |

| Variant | protein stability index |
| --- | --- |
| IAQYALLGYFIRSWRTLKILVNLQ [A18K] | 1.91 |
| IAQYALLGYFIRSWRTLWILVNLQ [A18W] | 2.12 |
| IAQYALLGYFIRSWRTLMILVNLQ [A18M] | 2.17 |
| IAQYALLGYFIRSWRTLLILVNLQ [A18L] | 3.84 |
| IAQYALLGYFIRSWRTLIILVNLQ [A18I] | 3.41 |
| IAQYALLGYFIRSWRTLSILVNLQ [A18S] | 3.54 |
| IAQYALLGYFIRSWRTLYILVNLQ [A18Y] | 3.11 |
| IAQYALLGYFIRSWRTLNILVNLQ [A18N] | 3.65 |
| IAQYALLGYFIRSWRTLPILVNLQ [A18P] | 3 |
| IAQYALLGYFIRSWRTLAIWVNLQ [L20W] | 2.32 |
| IAQYALLGYFIRSWRTLAIPVNLQ [L20P] | 3.33 |
| IAQYALLGYFIRSWRTLAINVNLQ [L20N] | 2 |
| IAQYALLGYFIRSWRTLAIAVNLQ [L20A] | 3.21 |
| IAQYALLGYFIRSWRTLAIMVNLQ [L20M] | 3.89 |
| IAQYALLGYFIRSWRTLAIGVNLQ [L20G] | 3.27 |
| IAQYALLGYFIRSWRTLAIDVNLQ [L20D] | 2.57 |
| IAQYALLGYFIRSWRTLAIEVNLQ [L20E] | 2.77 |
| IAQYALLGYFIRSWRTLAIYVNLQ [L20Y] | 2.76 |
| IAQYALLGYFIRSWRTLAICVNLQ [L20C] | 3.7 |
| IAQYALLGYFIRSWRTLAISVNLQ [L20S] | 3.12 |
| IAQYALLGYFIRSWRTLAIVVNLQ [L20V] | 2.1 |
| IAQYALLGYFIRSWRTLAITVNLQ [L20T] | 2.91 |
